Residue numbers refer to the chain shown, from its start. Names may count otherwise.
T1: TNFR1 (Homo sapiens, UniProt P19438)
T1 chain: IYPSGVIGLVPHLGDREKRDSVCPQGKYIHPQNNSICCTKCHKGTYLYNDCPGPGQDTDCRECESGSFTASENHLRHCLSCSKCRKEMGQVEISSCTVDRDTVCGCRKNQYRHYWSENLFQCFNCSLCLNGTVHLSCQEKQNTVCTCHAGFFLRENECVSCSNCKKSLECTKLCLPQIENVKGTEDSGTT

B1: K88Y (designed binder)
chain: SMEEEVEKAAKEYEKKKKEAIEKHLEKLKAKDKEAAERFLKELEEAAKEYAKDEAKTMSEEEAKRRAKKYKEKVLLSELSEEEQKEIYEAEEKLVRTILKYVEEAAK
B2: Y70T (designed binder)
chain: B1 chain with Y70T, Y88K
B3: Y13N (designed binder)
chain: B1 chain with Y13N, Y88K
B4: E89S (designed binder)
chain: B1 chain with Y88K, E89S
B5: L25E (designed binder)
chain: B1 chain with L25E, Y88K
B6: E104M (designed binder)
chain: B1 chain with Y88K, E104M
B7: K85Q (designed binder)
chain: B1 chain with K85Q, Y88K
B8: K69Q (designed binder)
chain: B1 chain with K69Q, Y88K
B9: F39N (designed binder)
chain: B1 chain with F39N, Y88K
B10: K17Q (designed binder)
chain: B1 chain with K17Q, Y88K
B11: L28E (designed binder)
chain: B1 chain with L28E, Y88K
B12: A36T (designed binder)
chain: B1 chain with A36T, Y88K
B13: K27D (designed binder)
chain: B1 chain with K27D, Y88K
B14: Y70M (designed binder)
chain: B1 chain with Y70M, Y88K
B15: R38E (designed binder)
chain: B1 chain with R38E, Y88K
B16: K18R (designed binder)
chain: B1 chain with K18R, Y88K
B17: K8P (designed binder)
chain: B1 chain with K8P, Y88K
B18: E34M (designed binder)
chain: B1 chain with E34M, Y88K
B19: E78L (designed binder)
chain: B1 chain with E78L, Y88K
B20: E37G (designed binder)
chain: B1 chain with E37G, Y88K
B21: E34V (designed binder)
chain: B1 chain with E34V, Y88K
B22: K23V (designed binder)
chain: B1 chain with K23V, Y88K
B23: S1S (designed binder)
chain: B1 chain with Y88K
B24: A47E (designed binder)
chain: B1 chain with A47E, Y88K
B25: E34H (designed binder)
chain: B1 chain with E34H, Y88K
B26: K18N (designed binder)
chain: B1 chain with K18N, Y88K
B27: Y101G (designed binder)
chain: B1 chain with Y88K, Y101G
B28: E89G (designed binder)
chain: B1 chain with Y88K, E89G
B29: A90I (designed binder)
chain: B1 chain with Y88K, A90I
B30: T97Y (designed binder)
chain: B1 chain with Y88K, T97Y
B31: K69W (designed binder)
chain: B1 chain with K69W, Y88K
B32: E3S (designed binder)
chain: B1 chain with E3S, Y88K
B33: R65L (designed binder)
chain: B1 chain with R65L, Y88K
B34: E78S (designed binder)
chain: B1 chain with E78S, Y88K
B35: L28F (designed binder)
chain: B1 chain with L28F, Y88K
B36: E86Q (designed binder)
chain: B1 chain with E86Q, Y88K
B37: E62P (designed binder)
chain: B1 chain with E62P, Y88K
B38: E103V (designed binder)
chain: B1 chain with Y88K, E103V
B39: K68M (designed binder)
chain: B1 chain with K68M, Y88K
B40: D53K (designed binder)
chain: B1 chain with D53K, Y88K
B41: S77R (designed binder)
chain: B1 chain with S77R, Y88K
B42: Q84F (designed binder)
chain: B1 chain with Q84F, Y88K
B43: Q84E (designed binder)
chain: B1 chain with Q84E, Y88K
B44: K100S (designed binder)
chain: B1 chain with Y88K, K100S
B45: R38I (designed binder)
chain: B1 chain with R38I, Y88K
B46: E22V (designed binder)
chain: B1 chain with E22V, Y88K
B47: E3R (designed binder)
chain: B1 chain with E3R, Y88K
B48: K31I (designed binder)
chain: B1 chain with K31I, Y88K
B49: K88R (designed binder)
chain: B1 chain with Y88R
B50: A46Y (designed binder)
chain: B1 chain with A46Y, Y88K
B51: K107G (designed binder)
chain: B1 chain with Y88K, K107G
B52: E19I (designed binder)
chain: B1 chain with E19I, Y88K
B53: A10E (designed binder)
chain: B1 chain with A10E, Y88K
B54: L43K (designed binder)
chain: B1 chain with L43K, Y88K
B55: L99N (designed binder)
chain: B1 chain with Y88K, L99N
B56: K33Y (designed binder)
chain: B1 chain with K33Y, Y88K
B57: L76S (designed binder)
chain: B1 chain with L76S, Y88K
B58: K69L (designed binder)
chain: B1 chain with K69L, Y88K
B59: R96P (designed binder)
chain: B1 chain with Y88K, R96P

Target: T1, TNFR1
Assay: yeast display SC50

| apparent Kd (screen) [nM] | Binder |
| --- | --- |
| 0.49 | B1 |
| 7.07 | B2 |
| 0.446 | B3 |
| 0.49 | B4 |
| 2.73 | B5 |
| 0.869 | B6 |
| 0.539 | B7 |
| 0.446 | B8 |
| 3.3 | B9 |
| 1.16 | B10 |
| 0.539 | B11 |
| 1.69 | B12 |
| 0.956 | B13 |
| 6.43 | B14 |
| 2.73 | B15 |
| 0.79 | B16 |
| 3.63 | B17 |
| 0.446 | B18 |
| 0.79 | B19 |
| 0.446 | B20 |

| apparent Kd (screen) [nM] | Binder |
| --- | --- |
| 0.446 | B21 |
| 0.869 | B22 |
| 0.539 | B23 |
| 0.0802 | B24 |
| 0.446 | B25 |
| 0.539 | B26 |
| 0.446 | B27 |
| 1.4 | B28 |
| 1.4 | B29 |
| 0.539 | B30 |
| 11.4 | B31 |
| 2.73 | B32 |
| 1.05 | B33 |
| 1.54 | B34 |
| 0.446 | B35 |
| 0.446 | B36 |
| 15.2 | B37 |
| 0.539 | B38 |
| 1.27 | B39 |
| 0.208 | B40 |

| apparent Kd (screen) [nM] | Binder |
| --- | --- |
| 1.86 | B41 |
| 5.84 | B42 |
| 4.39 | B43 |
| 0.653 | B44 |
| 1.4 | B45 |
| 1.16 | B46 |
| 1.4 | B47 |
| 0.869 | B48 |
| 0.49 | B49 |
| 0.49 | B50 |
| 1.05 | B51 |
| 0.869 | B52 |
| 1.27 | B53 |
| 0.869 | B54 |
| 6.43 | B55 |
| 0.593 | B56 |
| 4.83 | B57 |
| 0.446 | B58 |
| 1.27 | B59 |
